“Also recorded” adds a separate entry of the source.
Biological target: T1, human FL-KDM4A (Homo sapiens, UniProt O75164)
T1 construct: along with the full length FL- KDM4C and FL-KDM4A using various synthetic histone tail peptides as substrates; His6 (N); made in house; host or cells: High Five (Trichoplusia ni) insect cells, baculovirus
T1 sequence (O75164 1-1064): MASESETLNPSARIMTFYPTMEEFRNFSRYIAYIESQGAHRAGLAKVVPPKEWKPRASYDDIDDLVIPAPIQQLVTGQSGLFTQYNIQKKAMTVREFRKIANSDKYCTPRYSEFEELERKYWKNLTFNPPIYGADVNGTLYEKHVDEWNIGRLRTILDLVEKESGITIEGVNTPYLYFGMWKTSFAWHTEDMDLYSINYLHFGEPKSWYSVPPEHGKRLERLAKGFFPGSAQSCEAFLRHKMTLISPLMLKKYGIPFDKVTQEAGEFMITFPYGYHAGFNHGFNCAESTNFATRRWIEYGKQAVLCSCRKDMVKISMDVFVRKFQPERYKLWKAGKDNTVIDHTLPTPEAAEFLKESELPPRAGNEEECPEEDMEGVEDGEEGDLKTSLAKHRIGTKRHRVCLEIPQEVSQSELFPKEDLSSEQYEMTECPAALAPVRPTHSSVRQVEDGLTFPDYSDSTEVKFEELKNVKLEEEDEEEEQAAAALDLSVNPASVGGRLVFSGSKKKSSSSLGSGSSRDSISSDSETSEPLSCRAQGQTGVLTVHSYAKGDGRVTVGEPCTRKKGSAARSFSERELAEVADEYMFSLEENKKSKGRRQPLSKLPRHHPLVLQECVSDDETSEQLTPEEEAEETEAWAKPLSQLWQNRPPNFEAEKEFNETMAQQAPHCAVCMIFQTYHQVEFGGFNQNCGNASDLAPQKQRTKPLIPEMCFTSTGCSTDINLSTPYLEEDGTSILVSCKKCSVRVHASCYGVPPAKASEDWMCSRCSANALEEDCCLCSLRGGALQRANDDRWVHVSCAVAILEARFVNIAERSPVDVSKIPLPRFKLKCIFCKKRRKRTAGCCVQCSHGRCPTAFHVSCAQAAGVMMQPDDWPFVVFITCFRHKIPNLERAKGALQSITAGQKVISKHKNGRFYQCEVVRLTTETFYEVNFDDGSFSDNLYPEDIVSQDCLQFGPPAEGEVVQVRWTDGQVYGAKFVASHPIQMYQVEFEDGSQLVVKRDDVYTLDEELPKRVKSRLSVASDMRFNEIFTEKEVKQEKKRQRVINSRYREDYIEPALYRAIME
Assay: FDH-assay enzyme kinetics of H3 peptide demethylation, full length KDM4A
Format: biochemical
Parameters: key to K m / k cat / k cat /K m: 0 means no demethylation could be detected
Conditions: for demethylation / catalytic activity (in words) / K m / k cat / k cat /K m: FDH-assay; for K m: 50 mM HEPES (pH 7.5), 50 mM NaCl, 50 µM FeSO4, 500 µM α-KG, 500 µM ascorbate, 2 mM NAD, substrate 10–1000 µM, NADH fluorescence 15–30 minutes; for K m / k cat: triplicate; for k cat: pH 7.5, NADH fluorescence; for k cat /K m: pH 7.5, triplicate
Method: The enzyme kinetics were measured using a Formaldehyde DeHydrogenase Assay (FDH-Assay) and the demethylation of substrates was confirmed when possible by MALDI-TOF-MS, see File S1 for details. The test solution contained 50 mM HEPES (pH 7.5), 50 mM NaCl, 50 µM FeSO4, 500 µM α-KG, 500 µM ascorbate, 2 mM NAD, approximately 0.05 unit of FDH and e.g. 4.88 µM KDM4C (enzyme concentration varied between batches). The reference solution was comprised of the same except substrate. The assay was initiated by adding various concentrations of H3 peptide substrates e.g. H3(1–24)K9me3 (10–1000 µM) and the increase in NADH fluorescence was measured over 15–30 minutes in 30 second intervals. Data analysis and kinetic values were obtained using programs Excel and GraphPad Prism® 5.0. For details, see File S1.
The standard deviations for k cat/K m were calculated using the statistic law of propagation of errors. Standard errors for Michaelis-Menten Kinetics were automatically given in GraphPad Prism®, with a 95% confidence interval. All enzyme kinetic curves were done in triplicate unless otherwise stated.
Test for activity of enzyme using the fluorescence FDH assay, determination of Vmax and Km of enzymes with substrate, expression and purification of cc-KDM4A and cc-KDM4C software and parameters for the FDH coupled assay, see Lohse et al.^21
Recombinant baculoviridae encoding the full Open Reading Frame (ORF) of FL-KDM4A and FL-KDM4C were generously donated from the Biotech Research and Innovation Centre (BRIC), University of Copenhagen, Denmark. Recombinant protein was expressed by adding High Titer Stocks to High Five (Trichopulsia ni) insect cells in suspension culture. The cell cultures were harvested by centrifugation after ~ 60 hours and the cells were resuspended in hypotonic buffer (25 mM Hepes-KOH, pH 7.7, 1.5 mM MgCl, 5 mM KCl) supplemented with one protease inhibitor cocktail tablet per 500 ml expression (Roche, EDTA-free). The resuspended cells were frozen at -20 °C.
Both proteins were purified by IMAC using Talon FF (Clontech) cobalt resin according to the following protocol; resuspended cells were thawed on ice, 100 ml hypotonic buffer was added per 500 ml expression volume and the cells were incubated with stirring for 30 min. at 4 °C, followed by a brief (30 s per 500 ml culture volume) sonication. β-mercaptoethanol (BME, 2 mM final concentration), Triton X-100 (0.2 % final concentration) and NaCl (300 mM final concentration) were added and the cell suspension was stirred for another 30 min at 4 °C. The lysate was cleared by centrifugation at 50.000 g for 60 minutes. The cleared lysates were adjusted to 5 mM imidazole and incubated with Talon resin (1 ml /500 ml expression) for 60 minutes. The resin was allowed to sediment, the lysate removed and the resin was transferred to PD-10 gravity flow columns (GE Healthcare). The resin was washed with 10 column volumes of binding buffer (50 mM Hepes-KOH, pH 7.7, 300 mM NaCl, 5 mM imidazole, 10% glycerol, 0.05 % Triton X-100, 2 mM BME) and eluted with 2 x 2.5 ml elution buffer (50 mM Hepes-KOH, pH 7.7, 300 mM NaCl, 100 mM imidazole, 10 % glycerol, 0.05 % Triton X-100, 2 mM BME). Each eluted fraction has its buffer changed to 50 mM Hepes pH 7.5, 300 mM NaCl, 10 % glycerol using a PD-10 desalting column. The protein was concentrated to 6-7 mg/ml (FL-KDM4A) or 10-12 mg/ml (FL-KDM4C). Despite the buffer change it is likely that small amounts of Triton X-100 remained in the protein samples. Triton X-100 has a significant absorbance at 280 nm, so the protein concentration was determined by Bradford assay using a BSA standard curve. The protein purity was approximately 70 % as judged from SDS-PAGE. The concentrated protein was aliquoted and stored at -80 °C until assays were performed.
The standard deviations for kcat/ Km were calculated using the statistic law of propagation of errors. […]

[1] = SD by propagation of errors, unit: (min^−1 * µM^−1) * 10^3

Substance: H3(1–24)K9me2: truncated histone tail, 24 first amino acids from the N-terminus of H3, dimethylated lysine 9
- demethylation / catalytic activity (in words): too low to be detected; also recorded: could not be detected
- K m: 0
- k cat: 0
- k cat /K m [1]: 0

Substance: H3(1–24)K9me3T11(ph): H3(1–24)K9me3 with phosphorylation of threonine 11
- demethylation / catalytic activity (in words): no detectable turnover
- K m: 0
- k cat: 0
- k cat /K m [1]: 0

Substance: H3(1–24)K9me3: truncated histone tail, 24 first amino acids from the N-terminus of H3, trimethylated lysine 9; control peptide
- demethylation / catalytic activity (in words): preference for the H3K9me3 over the H3K9me2
- K m: 122±31
- k cat /K m [1]: 3.1±0.3
- k cat /K m (figures): 3 ± 0.4 min^-1 * μM^-1 * 10^3

Substance: H3(1–24)K4me3K9me3: bis-tri-methylated substrate, trimethylated K4 in combination with H3K9me3
- demethylation / catalytic activity (in words): an increase in FL-KDM4A demethylation activity, which is significantly higher compared to cc-KDM4A
- K m: 45±9
- k cat: 2.2±0.3
- fold increase in k cat/K m (compared to H3(1–24)K9me3): 17 fold
- k cat /K m (figures): 50 ± 9 min^-1 * μM^-1 * 10^3
